Data on 1 substance can be found in PMC11406985.

For orientation: stoichiometry N means a count of units in the complex or per binding partner.

The target in the experiment is medusavirus major capsid protein (medusavirus). Description: cryo-EM structure; purified medusavirus particles (DNA-empty and DNA-full) assembled in infected amoebae, in PBS; single particle analysis with block-based reconstruction of fivefold, threefold and twofold blocks, 7.3-9.9 Å; AlphaFold2 model of the MCP fitted into the map.

The substance “medusavirus major capsid protein (natural protein)” displayed a stoichiometry N of 3.
